Residue numbers refer to the chain shown, from its start. Like-named read-outs stand apart in the source and are kept apart here.
B1: SB-8-15 Fab (Fab, V domains shown)
VH: QVQLQESGPGLVKPSETLSLTCAVSGYSISAHYYWGWIRQPPGKGLEWIGSIYQSGHTYYNPSLKSRVTISVDTSKNQFSLKLSSVTAADTAVYYCARGGAMTPAGMDVWGQGTTVTVSS
VL: EIVMTQSPGTLSLSPGERATLSCRASQSVSSSYLAWYQQKPGQAPRLLIYGASNRATGIPDRFSGSGSGTDFTLTISRLEPEDFAVYYCQQVYSSPYTFGGGTKVEIK
notes: Fab by papain digestion
B2: SB-8-16 Fab (Fab, V domains shown)
VH: B1 VH with Y53F, Q54H, G99A
VL: B1 VL
notes: Fab by papain digestion
B3: SB-40 (antibody, V domains shown)
VH: QVQLVQSGAEVKKPGASVKVSCKASGYTFTSYYMSWVRQAPGQGLEWMGIINPSGGSTSYAQKFQGRVTMTRDTSTSTVYMELSSLRSEDTAVYYCARDTGEYSYSPHGMDVWGQGTTVTVSS
VL: EIVLTQSPATLSLSPGERATLSCRASQSVSSYLAWYQQKPGQAPRLLIYDSSNRATGIPARFSGSGSGTDFTLTISSLEPEDFAVYYCQQRDEHPPWTFGGGTKVEIK
notes: IgG; also called SB-40 (p)

Key:
[1] = target: T1, human SIRPβ1 domain 1 (D1) Fc fusion (human, UniProt O00241 30-148); test: Octet, Fab monovalent
T1 construct: Made in HEK293/T cells with a heterologous signal peptide; also called Human SIRPβ1 D1-Fc; Human SIRPβ1-Fc; not shown: C-terminal human IgG1 Fc
T1 sequence (O00241 30-148 limits assumed): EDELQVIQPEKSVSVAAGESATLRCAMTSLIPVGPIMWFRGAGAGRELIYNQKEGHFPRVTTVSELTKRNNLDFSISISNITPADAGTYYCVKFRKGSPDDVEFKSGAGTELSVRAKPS

[2] = target: T2, Human SIRPβ HIS (human, UniProt O00241 30-148, limits assumed); test: MSD-SET, Fab monovalent
T2 construct: detected with streptavidin, so biotinylated; also called recombinant human SIRPβ1; human SIRPβ1 monomer
T2 sequence (O00241 30-148 limits assumed): as above

[3] = target: T3, mouse SIRPα D1-Fc (mouse, UniProt P97797 32-150, limits assumed); test: Octet
T3 construct: domain: D1
T3 sequence (looked up): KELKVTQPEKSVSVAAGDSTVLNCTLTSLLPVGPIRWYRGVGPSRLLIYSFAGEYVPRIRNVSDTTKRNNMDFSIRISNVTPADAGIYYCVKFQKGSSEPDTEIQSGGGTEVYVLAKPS

[4] = target: T4, human SIRPα on cells (human, UniProt P78324 31-504); test: flow cytometry
T4 construct: Whole entry
Method: (§1) Cells were then washed twice and incubated in 100 ul FACS buffer containing 0.5 μg/ml PE-conjugated secondary antibody for 30 minutes on ice. Cells were washed twice in cold FACS buffer and acquired on a BD FACS Canto. Data analysis and calculation of mean fluorescence intensity (MFI) values or 00 positive cells was performed with FlowJo (TreeStar) software version 10.0.7.
(§2) Given the high sequence similarity between receptors of the SIRPβ family, anti-SIRPβ1 antibodies were also screened for cross-reactivity to human SIRPα.

[5] = target: T5, mouse SIRPβ1 on CHO cells (mouse); test: flow cytometry
T5 construct: Whole entry
T5 chain: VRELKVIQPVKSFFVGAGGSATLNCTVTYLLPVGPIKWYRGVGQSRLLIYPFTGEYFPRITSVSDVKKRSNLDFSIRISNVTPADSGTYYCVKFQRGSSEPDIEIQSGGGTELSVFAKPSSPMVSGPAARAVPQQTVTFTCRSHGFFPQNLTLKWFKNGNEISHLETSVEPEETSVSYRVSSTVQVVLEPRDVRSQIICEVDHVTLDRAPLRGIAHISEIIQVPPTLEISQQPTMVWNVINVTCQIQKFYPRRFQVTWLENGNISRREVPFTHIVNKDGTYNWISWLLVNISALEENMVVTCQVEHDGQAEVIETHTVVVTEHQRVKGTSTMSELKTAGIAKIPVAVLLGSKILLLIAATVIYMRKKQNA
Method: as §1, §2

[6] = target: T6, human SIRPβ1 isoform 1 on cells (human, UniProt O00241 30-398); test: flow cytometry
T6 construct: On CHO cells (low level), on BWZ/BW5147.G.1.4 cells (reporter cells co-express human DAP12) or on primary human myeloid cells; also called huSIRPβ1; BWZ-huSIRPβ1
T6 sequence (O00241 30-398): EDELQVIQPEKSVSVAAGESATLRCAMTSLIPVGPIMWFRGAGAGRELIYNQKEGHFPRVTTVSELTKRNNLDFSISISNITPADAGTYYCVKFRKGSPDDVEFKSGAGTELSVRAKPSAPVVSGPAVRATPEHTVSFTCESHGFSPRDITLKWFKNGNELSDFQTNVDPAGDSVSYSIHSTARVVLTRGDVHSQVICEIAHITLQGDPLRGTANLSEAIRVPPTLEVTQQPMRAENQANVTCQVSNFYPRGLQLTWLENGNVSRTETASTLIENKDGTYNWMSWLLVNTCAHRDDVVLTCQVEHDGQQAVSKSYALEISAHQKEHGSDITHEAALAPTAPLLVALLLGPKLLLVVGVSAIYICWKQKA
Method: as §1, §2

[7] = target: T7, human SIRPα domain 1 (D1) Fc fusion (human, UniProt P78324 32-149); test: Octet, IgG avid
T7 construct: also called human SIRPα D1-Fc; Human SIRPα Fc; not shown: C-terminal human IgG1 Fc

[8] = target: T1, human SIRPβ1 domain 1 (D1) Fc fusion; test: Octet, IgG avid
[9] = target: T8, Soluble, human SIRPβ1-Fc isoform 1 (O00241) (human, UniProt O00241 30-371, limits assumed); test: ELISA, antigen coated
T8 construct: Whole entry named; also called human SIRPβ1 isoform 1
T8 sequence (O00241 30-371 limits assumed, one chain of several): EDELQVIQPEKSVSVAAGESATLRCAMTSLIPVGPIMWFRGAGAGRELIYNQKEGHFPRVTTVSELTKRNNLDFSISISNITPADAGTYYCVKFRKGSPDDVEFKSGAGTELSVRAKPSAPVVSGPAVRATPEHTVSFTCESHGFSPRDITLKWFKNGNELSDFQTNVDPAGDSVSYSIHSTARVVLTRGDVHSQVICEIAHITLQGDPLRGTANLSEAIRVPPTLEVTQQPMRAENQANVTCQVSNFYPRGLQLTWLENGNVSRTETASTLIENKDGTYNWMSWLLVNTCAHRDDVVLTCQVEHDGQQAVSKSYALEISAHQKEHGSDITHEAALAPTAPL
From the text: Recombinant antigen based on the sequence of SIRPβ1 isoform 1 was used for selecting anti-SIRPβ1 antibodies from yeast library pools. To ascertain if the selected anti-SIRPβ1 antibodies cross-reacted with other isoforms of human SIRPβ1 or with cynomolgus SIRPβ1, recombinant antigens based on human SIRPβ1 isoform 3 sequence and cynomolgus SIRPβ1 isoform 1 sequence were produced by transient transfection in HEK293 cells. Purified, Fc-tagged recombinant proteins were adsorbed onto 96-well plates at 1 μg/mL overnight at 4° C. Plates were subsequently washed with PBS+0.05% Tween-20 and blocked with 1% BSA+PBS for 2 hours at room temperature. Antibodies diluted in blocking buffer at 1 μg/mL were added to wells, serially diluted, and allowed to bind antigen overnight at 4° C. The following day, the primary antibodies were removed and anti-human kappa light chain antibody conjugated to horseradish peroxidase diluted 1:10,000 in blocking buffer were added to wells and incubated for 1 hour at room temperature. Plates were washed with PBS+0.05% Tween-20 and 100 μL of TMB substrate solution was added to wells to generate a colorimetric signal proportional to amount of anti-SIRPβ1 antibody bound to antigen. Once the reaction reached an appropriate color intensity, 100 μL of Stop solution was added to quench the enzyme.
Eight anti-SIRPβ1 antibodies (four parental antibodies and four corresponding affinity matured antibodies) were selected for analysis.

[10] = target: T6, human SIRPβ1 isoform 1 on cells; test: cell binding titration; target not given
[11] = target: T4, human SIRPα on cells; test: flow cytometry; remark: listed apart in the source
[12] = target: T9, mouse SIRPα on cells (mouse, UniProt P97797 32-513); test: flow cytometry;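 as to FOB: antibodies tested at 1 µg/ml for 30 min on ice against receptor-expressing cells, detected with a PE-labelled secondary antibody, read as mean fluorescence intensity relative to background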
T9 construct: whole, on cells
T9 sequence (looked up): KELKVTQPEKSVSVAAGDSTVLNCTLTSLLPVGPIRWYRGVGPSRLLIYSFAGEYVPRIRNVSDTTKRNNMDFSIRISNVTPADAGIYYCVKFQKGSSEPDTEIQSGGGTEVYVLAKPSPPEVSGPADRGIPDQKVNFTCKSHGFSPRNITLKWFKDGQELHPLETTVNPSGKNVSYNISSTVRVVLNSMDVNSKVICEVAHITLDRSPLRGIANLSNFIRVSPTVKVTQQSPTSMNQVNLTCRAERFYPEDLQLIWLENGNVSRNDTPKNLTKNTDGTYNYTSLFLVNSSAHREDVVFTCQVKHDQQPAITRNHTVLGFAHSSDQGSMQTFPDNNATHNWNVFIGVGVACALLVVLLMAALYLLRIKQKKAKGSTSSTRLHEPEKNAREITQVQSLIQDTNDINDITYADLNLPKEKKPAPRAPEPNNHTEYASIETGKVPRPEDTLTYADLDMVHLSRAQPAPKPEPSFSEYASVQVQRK

[13] = target: T5, mouse SIRPβ1 on CHO cells; test: flow cytometry
[14] = target: T10, human SIRPβ1-Fc isoform 3 (Q5TFQ8) (human, UniProt Q5TFQ8 30-371, limits assumed); test: ELISA on plate-coated huSirpB-Fc (Q5TFQ8.1), anti-human kappa-HRP, A450
T10 construct: Whole entry named; made in HEK293 cells; also called human SIRPβ1 isoform 3
T10 sequence (Q5TFQ8 30-371 limits assumed, one chain of several): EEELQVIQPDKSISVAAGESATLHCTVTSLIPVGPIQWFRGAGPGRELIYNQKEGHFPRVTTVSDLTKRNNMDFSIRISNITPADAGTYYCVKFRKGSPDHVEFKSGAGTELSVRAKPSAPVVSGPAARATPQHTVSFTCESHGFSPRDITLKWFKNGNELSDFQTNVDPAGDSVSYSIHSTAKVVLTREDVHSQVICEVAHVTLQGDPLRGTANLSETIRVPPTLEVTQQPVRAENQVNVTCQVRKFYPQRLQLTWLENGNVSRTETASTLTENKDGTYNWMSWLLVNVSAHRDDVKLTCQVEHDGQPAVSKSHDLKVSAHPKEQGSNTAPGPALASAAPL
From the text: Among the multiple SIRPβ1 isoforms catalogued, isoform 1 is the full-length version of the receptor primarily expressed in the periphery. Recombinant antigen based on the sequence of SIRPβ1 isoform 1 was used for selecting anti-SIRPβ1 antibodies from yeast library pools. To ascertain if the selected anti-SIRPβ1 antibodies cross-reacted with other isoforms of human SIRPβ1 or with cynomolgus SIRPβ1, recombinant antigens based on human SIRPβ1 isoform 3 sequence and cynomolgus SIRPβ1 isoform 1 sequence were produced by transient transfection in HEK293 cells. Purified, Fc-tagged recombinant proteins were adsorbed onto 96-well plates at 1 μg/mL overnight at 4° C. Plates were subsequently washed with PBS+0.05% Tween-20 and blocked with 1% BSA+PBS for 2 hours at room temperature. Antibodies diluted in blocking buffer at 1 μg/mL were added to wells, serially diluted, and allowed to bind antigen overnight at 4° C. The following day, the primary antibodies were removed and anti-human kappa light chain antibody conjugated to horseradish peroxidase diluted 1:10,000 in blocking buffer were added to wells and incubated for 1 hour at room temperature. Plates were washed with PBS+0.05% Tween-20 and 100 μL of TMB substrate solution was added to wells to generate a colorimetric signal proportional to amount of anti-SIRPβ1 antibody bound to antigen. […]

[15] = target: T4, human SIRPα on cells; test: flow cytometry; remark: listed apart in the source
[16] = target: T9, mouse SIRPα on cells; test: flow cytometry; remark: listed apart in the source;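 as to FOB: antibodies tested at 1 µg/ml for 30 min on ice against receptor-expressing cells, detected with a PE-labelled secondary antibody, read as mean fluorescence intensity relative to background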
[17] = target: T5, mouse SIRPβ1 on CHO cells; test: flow cytometry
[18] = target: T6, human SIRPβ1 isoform 1 on cells; test: flow cytometry; remark: listed apart in the source

Binder	Kd [1]	Kd [2]	binding result [3]	FOB [4]	FOB [5]	FOB [6]	binding result [7]	Kd [8]	EC50 [9]	EC50 [10]	binding result [11]	binding result [12]	binding result [13]	binding result [14]	FOB [15]	FOB [16]	FOB [17]	FOB [18]
B1	3.73 nM	0.048 nM																
B2	2.32 nM	0.055 nM																
B3			no binding (tested: 100 nM)	1 fold over background	1 fold over background	2 fold over background	no binding (tested: 100 nM)	9.64 nM	0.04 nM	0.707 nM	no binding (tested: 1 ug/ml)	no binding (tested: 1 ug/ml)	no binding (tested: 1 ug/ml)	no binding (tested: 1 ug/mL)	2.5 fold over background	1.2 fold over background	1.1 fold over background	7 fold over background
